# Experimental data published in patent publication US5830995 (Bristol-Myers Squibb Company, dated 1998).
# Biological target: T1, human EGF receptor (human, UniProt P00533)
# Assay: competition of 125I-EGF binding to NRHER5 membranes
row,Molecule,maximum competition
1,native amphiregulin (AR) purified from TPA-treated MCF-7 cells (ligand),85%

# Biological target: T1, human EGF receptor
# Assay: competition of 125I-EGF binding to NRHER5 membranes, 50% inhibition
row,Molecule,IC50
1,"gp35, 35-40 kD soluble high molecular weight form of human AR (ligand)",> 300 nM
2,native amphiregulin (AR) purified from TPA-treated MCF-7 cells (ligand),100 nM
3,"recombinant human AR 18 kD purified from CHO/ARGE 2a cells (ligand, N-linked glycosylation at Asn-113) NKTESEKTSDKPKRKKKGGKNGKNRRNRKKKNLCDTEFQNFCIHGKCTFLEQLETVSCQCYPEYFGERCGEKSMKTQSMVD",~100 nM
4,bacterially produced AAAT (ligand) MVVKPPQNKTESENTSDKPKRKKKGGKNGKNRRNRKKKNPCNAEFQNFCIHGECKYIEHLEAVTCKCQQEYFGERCGEKDLLA,~1.5 nM
5,bacterially produced AR-SMKT (ligand) MVVKPPQNKTESENTSDKPKRKKKGGKNGKNRRNRKKKNPCNAEFQNFCIHGECKYIEHLEAVTCKCQQEYFGERCGEKSMKT,~150 nM
